Paper PMC4072508, “Genome-Wide Prediction and Validation of Peptides That Bind Human Prosurvival Bcl-2 Proteins” (PLoS Computational Biology, 2014)

T1: Bfl-1, Q16548
T1 chain: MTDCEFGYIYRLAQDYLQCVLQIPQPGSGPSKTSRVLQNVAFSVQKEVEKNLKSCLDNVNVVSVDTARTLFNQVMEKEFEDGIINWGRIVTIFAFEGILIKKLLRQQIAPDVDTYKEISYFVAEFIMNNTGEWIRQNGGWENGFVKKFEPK

T2: Mcl-1, Q07820
T2 chain: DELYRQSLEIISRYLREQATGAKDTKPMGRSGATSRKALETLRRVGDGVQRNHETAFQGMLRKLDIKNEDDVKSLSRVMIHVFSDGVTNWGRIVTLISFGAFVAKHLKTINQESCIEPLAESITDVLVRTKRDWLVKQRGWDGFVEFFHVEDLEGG


target: Bcl-xL, Q07817; assay: peptide SPOT array, c-Myc-tagged receptor at 1 uM or 100 nM, anti-c-Myc-Cy3
Sequence (Q07817 1-209): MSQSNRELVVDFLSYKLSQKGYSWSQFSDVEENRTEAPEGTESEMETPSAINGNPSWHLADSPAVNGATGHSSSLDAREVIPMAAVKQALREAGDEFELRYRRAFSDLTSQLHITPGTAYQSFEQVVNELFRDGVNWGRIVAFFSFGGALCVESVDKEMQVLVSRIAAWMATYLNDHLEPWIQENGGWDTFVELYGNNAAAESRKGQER

SPOT signal as a fraction of Bim BH3's signal on the same receptor and array | Binder
0.75 | LALLAQPSHLMRQVLRSVFGHICSHL [MYBBP1A]
1.16 | RVCPYYLSRNLKQQLDIIFMPYNYLL [RTEL1]
2.64 | TAAAAYRGAHLRGRGRTVYNTFRAAA
0.06 | QCPIFRLGDIFRETLDNFSDVAIQGG [P2RX7]
0.06 | SQEPLEKAQLLALVLDQLIQSHHYAA [MCF2L2]
0.06 | MSILTIASAVLEFVGDGIYNNTMGHV [TAP1]
0.06 | LTETSLISGNLHRILDITSCSVLWLN [FBXW5]
0.2 | AIILCNVCGNDCTDCDRFLHLHRRTK [MYCBP2]
0.83 | KLALEQRCREDRARGRRLEETLPRRI [KIF19]
0.1 | AFGLGDLPNLLGLVGDQLGDTERKRR [ADAMTS14]
0.16 | TETKATFGVHLKIVGDWTERFRDLLL [NOX4]
0.05 | HTALENCASLDCIRADELQEALTSHC [MYO3A]
0.91 | CGEWTRRSLHDRVLGRQLILPTDKGV [FAM149A]
0.07 | SHFVACMTAILNQMGDQHYSFYIETF [DOCK2]
0.06 | VLLTLLVAAVLRCQGQDVQEAGSCVQ [COL2A1]
0.07 | THFLDEEVKLIKKMLDHLTNLHRLGG [FTL]

SPOT signal as a fraction of Bim BH3's signal on the same receptor and array | Binder
0.48 | LMARPAVALHFQSILDGFKEAVRYVL [SOS2]
0.41 | ERLKGQLCDVLLIVLDQKFRAHKNVL [ZNF295]
0.09 | AGYELLIQKFLSLYLDQIDMHRKFVV [ISOC1]
0.38 | PALLVHWAKCDQKMGRGLNSSYDQQE [RGPD2]
0.1 | QRKHEGFERDLAALLDKVNSLGETAE [SPTAN1]
0.35 | YIVLGLRKTTLQKVLKEVAELVGRVG [NLRX1]
0.49 | PYLSKHRADRDRRLGDFLNQESFDLA [SMPD2]
0.07 | MSLFLRVVFSFTMFGDLFEEEYSTVS [USP40]
0.06 | QEQEQHVPFDIHTYLDQLVSRFPQLN [NCAPH2]
0.86 | AEVMRQRGINDRYLGKVLELVLRSPA [KIAA0664]
0.09 | SKEVAILCSFLLGLGDSCFNTQLLSI [MFSD11]
0.05 | HHSSQEMSSEDREYADSFGKCPGGRN [PCYT2]
0.05 | NNNMDVESRTDATMGDTLASRGLLDA [SEC16A]
0.1 | LALMMQLARELKTLARDLGMAVVVTN [RAD51L3]
2.76 | GTAVAYRGAHDRGRGRAVYNTFRAAP
0.06 | LFWTPLLVVLLAGLLDTEAQQTTLHP [SGCA]

Target: T1, Bfl-1, Q16548
Assay: as above

SPOT signal as a fraction of Bim BH3's signal on the same receptor and array | Binder
0.54 | LALLAQPSHLMRQVLRSVFGHICSHL [MYBBP1A]
0.52 | RVCPYYLSRNLKQQLDIIFMPYNYLL [RTEL1]
1.71 | TAAAAYRGAHLRGRGRTVYNTFRAAA
0.04 | QCPIFRLGDIFRETLDNFSDVAIQGG [P2RX7]
0.03 | SQEPLEKAQLLALVLDQLIQSHHYAA [MCF2L2]
0.04 | MSILTIASAVLEFVGDGIYNNTMGHV [TAP1]
0.07 | LTETSLISGNLHRILDITSCSVLWLN [FBXW5]
0.13 | AIILCNVCGNDCTDCDRFLHLHRRTK [MYCBP2]
0.43 | KLALEQRCREDRARGRRLEETLPRRI [KIF19]
0.06 | AFGLGDLPNLLGLVGDQLGDTERKRR [ADAMTS14]
0.11 | TETKATFGVHLKIVGDWTERFRDLLL [NOX4]
0.03 | HTALENCASLDCIRADELQEALTSHC [MYO3A]
0.86 | CGEWTRRSLHDRVLGRQLILPTDKGV [FAM149A]
0.05 | SHFVACMTAILNQMGDQHYSFYIETF [DOCK2]
0.04 | VLLTLLVAAVLRCQGQDVQEAGSCVQ [COL2A1]
0.04 | THFLDEEVKLIKKMLDHLTNLHRLGG [FTL]

SPOT signal as a fraction of Bim BH3's signal on the same receptor and array | Binder
0.44 | LMARPAVALHFQSILDGFKEAVRYVL [SOS2]
0.19 | ERLKGQLCDVLLIVLDQKFRAHKNVL [ZNF295]
0.05 | AGYELLIQKFLSLYLDQIDMHRKFVV [ISOC1]
0.26 | PALLVHWAKCDQKMGRGLNSSYDQQE [RGPD2]
0.08 | QRKHEGFERDLAALLDKVNSLGETAE [SPTAN1]
0.23 | YIVLGLRKTTLQKVLKEVAELVGRVG [NLRX1]
0.56 | PYLSKHRADRDRRLGDFLNQESFDLA [SMPD2]
0.04 | MSLFLRVVFSFTMFGDLFEEEYSTVS [USP40]
0.04 | QEQEQHVPFDIHTYLDQLVSRFPQLN [NCAPH2]
0.49 | AEVMRQRGINDRYLGKVLELVLRSPA [KIAA0664]
0.04 | SKEVAILCSFLLGLGDSCFNTQLLSI [MFSD11]
0.03 | HHSSQEMSSEDREYADSFGKCPGGRN [PCYT2]
0.06 | NNNMDVESRTDATMGDTLASRGLLDA [SEC16A]
0.07 | LALMMQLARELKTLARDLGMAVVVTN [RAD51L3]
1.47 | GTAVAYRGAHDRGRGRAVYNTFRAAP
0.08 | LFWTPLLVVLLAGLLDTEAQQTTLHP [SGCA]

Target: T2, Mcl-1, Q07820
Assay: as above

SPOT signal as a fraction of Bim BH3's signal on the same receptor and array | Binder
0.54 | LALLAQPSHLMRQVLRSVFGHICSHL [MYBBP1A]
0.75 | RVCPYYLSRNLKQQLDIIFMPYNYLL [RTEL1]
1.37 | TAAAAYRGAHLRGRGRTVYNTFRAAA
0.05 | QCPIFRLGDIFRETLDNFSDVAIQGG [P2RX7]
0.04 | SQEPLEKAQLLALVLDQLIQSHHYAA [MCF2L2]
0.05 | MSILTIASAVLEFVGDGIYNNTMGHV [TAP1]
0.04 | LTETSLISGNLHRILDITSCSVLWLN [FBXW5]
0.16 | AIILCNVCGNDCTDCDRFLHLHRRTK [MYCBP2]
0.44 | KLALEQRCREDRARGRRLEETLPRRI [KIF19]
0.08 | AFGLGDLPNLLGLVGDQLGDTERKRR [ADAMTS14]
0.08 | TETKATFGVHLKIVGDWTERFRDLLL [NOX4]
0.03 | HTALENCASLDCIRADELQEALTSHC [MYO3A]
0.72 | CGEWTRRSLHDRVLGRQLILPTDKGV [FAM149A]
0.06 | SHFVACMTAILNQMGDQHYSFYIETF [DOCK2]
0.04 | VLLTLLVAAVLRCQGQDVQEAGSCVQ [COL2A1]
0.05 | THFLDEEVKLIKKMLDHLTNLHRLGG [FTL]

SPOT signal as a fraction of Bim BH3's signal on the same receptor and array | Binder
0.84 | LMARPAVALHFQSILDGFKEAVRYVL [SOS2]
0.19 | ERLKGQLCDVLLIVLDQKFRAHKNVL [ZNF295]
0.07 | AGYELLIQKFLSLYLDQIDMHRKFVV [ISOC1]
0.41 | PALLVHWAKCDQKMGRGLNSSYDQQE [RGPD2]
0.11 | QRKHEGFERDLAALLDKVNSLGETAE [SPTAN1]
0.25 | YIVLGLRKTTLQKVLKEVAELVGRVG [NLRX1]
0.51 | PYLSKHRADRDRRLGDFLNQESFDLA [SMPD2]
0.07 | MSLFLRVVFSFTMFGDLFEEEYSTVS [USP40]
0.04 | QEQEQHVPFDIHTYLDQLVSRFPQLN [NCAPH2]
0.53 | AEVMRQRGINDRYLGKVLELVLRSPA [KIAA0664]
0.05 | SKEVAILCSFLLGLGDSCFNTQLLSI [MFSD11]
0.04 | HHSSQEMSSEDREYADSFGKCPGGRN [PCYT2]
0.03 | NNNMDVESRTDATMGDTLASRGLLDA [SEC16A]
0.12 | LALMMQLARELKTLARDLGMAVVVTN [RAD51L3]
1.35 | GTAVAYRGAHDRGRGRAVYNTFRAAP
0.05 | LFWTPLLVVLLAGLLDTEAQQTTLHP [SGCA]
